Reference: US20220298217A1 (FLAGSHIP PIONEERING INNOVATIONS VI, published 2022)

Each binder was assayed against T1, PTHR1 on CHO-K1/Ga15/PTHR1 cells (UniProt Q03431 27-593, limits assumed) (assay: cell-based or functional assay).
T1 sequence (looked up): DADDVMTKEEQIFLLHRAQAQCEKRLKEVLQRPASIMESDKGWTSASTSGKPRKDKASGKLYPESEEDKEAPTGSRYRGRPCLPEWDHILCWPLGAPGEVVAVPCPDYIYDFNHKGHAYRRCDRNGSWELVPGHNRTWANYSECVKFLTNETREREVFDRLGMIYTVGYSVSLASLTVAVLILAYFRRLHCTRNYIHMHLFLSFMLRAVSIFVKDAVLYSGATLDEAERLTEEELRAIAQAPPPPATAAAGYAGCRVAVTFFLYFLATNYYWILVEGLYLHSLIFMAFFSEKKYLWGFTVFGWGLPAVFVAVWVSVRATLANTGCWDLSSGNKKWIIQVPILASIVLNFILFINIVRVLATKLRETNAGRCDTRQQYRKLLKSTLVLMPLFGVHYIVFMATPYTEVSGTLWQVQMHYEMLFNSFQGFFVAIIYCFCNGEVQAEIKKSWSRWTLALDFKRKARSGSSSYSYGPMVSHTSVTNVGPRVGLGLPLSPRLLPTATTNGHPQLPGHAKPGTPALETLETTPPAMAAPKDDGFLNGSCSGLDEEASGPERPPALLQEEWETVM
AVAEIQLMHQRAKWKQELELEEKNKKILEDVY [R2-32] was tested, and the “cAMP accumulation (HTRF): -log10EC50” value was -6.51 -log10EC50 (as headed) and the “cAMP accumulation (HTRF): Emax” value was 101%.
With GIAVITLMVLRALLELQEIGRKITLELLKEYI [R2-51, listing 1 of 2 here] the “cAMP accumulation (HTRF): -log10EC50” value was -9.98 -log10EC50 (as headed) and the “cAMP accumulation (HTRF): Emax” value was 3.99%.
For GVAELQLMHDLAKIKLELELKVKLLEILKDVY [R2-49], the “cAMP accumulation (HTRF): -log10EC50” value was -5.79 -log10EC50 (as headed) and the “cAMP accumulation (HTRF): Emax” value was 99.9%.
AVAEIQLMHQRAKWKLDLELAVSLRKILEDVY [R2-27] was tested, and the “cAMP accumulation (HTRF): -log10EC50” value was -7.91 -log10EC50 (as headed) and the “cAMP accumulation (HTRF): Emax” value was 93.3%.
AVAEIQLMHQRAKWGLELELKEKLRKILEDVY [R2-26] was tested, and the “cAMP accumulation (HTRF): -log10EC50” value was -7.07 -log10EC50 (as headed) and the “cAMP accumulation (HTRF): Emax” value was 96.8%.
With AVAEIQLMHQRAKWLEELKLKDDLRKILEDVY [R2-30] the “cAMP accumulation (HTRF): -log10EC50” value was -7.1 -log10EC50 (as headed) and the “cAMP accumulation (HTRF): Emax” value was 97.2%.
AVAEIQLMHQRAKWIQDARRRAFLHKLIAEIH [LA-PM-FL (R1-81)] was tested, and the “cAMP accumulation (HTRF): -log10EC50” value was -7.88 -log10EC50 (as headed) and the “cAMP accumulation (HTRF): Emax” value was 95%.
For AVAEIQLMHQRAKWKLELELKEKIRKLLEDLL [R2-29], the “cAMP accumulation (HTRF): -log10EC50” value was -7.22 -log10EC50 (as headed) and the “cAMP accumulation (HTRF): Emax” value was 97.5%.
In the case of GVAMIQIMHDIAKIRAEYELREMLLRLLEEIF [R2-2], the “cAMP accumulation (HTRF): -log10EC50” value is reported as -6.73 -log10EC50 (as headed) and the “cAMP accumulation (HTRF): Emax” value is reported as 101%.
For GVALLQIVHDFAKIRAEYELREMLLRLLEEIF [R2-5], the “cAMP accumulation (HTRF): Emax” value was 1580%.
GVVMLQFMHDVAKIRAEYELREMLLRLLEEIF [R2-9] was tested, and the “cAMP accumulation (HTRF): -log10EC50” value was 110 -log10EC50 (as headed) and the “cAMP accumulation (HTRF): Emax” value was 665%.
For GVSMLQIMHDLAVIRAEYELREMLLRLLEEIF [R2-4], the “cAMP accumulation (HTRF): -log10EC50” value was -5.87 -log10EC50 (as headed) and the “cAMP accumulation (HTRF): Emax” value was 10.6%.
With GVAELQLMHDLAKIRAEYELREMLLRLLEEIF [R2-1, listing 1 of 2 here] the “cAMP accumulation (HTRF): -log10EC50” value was -7.02 -log10EC50 (as headed) and the “cAMP accumulation (HTRF): Emax” value was 102%.
With GVAEIQLMHDIPVIRAEYELREMLLRLLEEIF [R2-3] the “cAMP accumulation (HTRF): -log10EC50” value was -4.93 -log10EC50 (as headed) and the “cAMP accumulation (HTRF): Emax” value was 260%.
With GVAELQLMHFRALLRAEYELREMLLRLLEEIF [R2-7] the “cAMP accumulation (HTRF): -log10EC50” value was -1.58 -log10EC50 (as headed) and the “cAMP accumulation (HTRF): Emax” value was 823%.
GVAEIQLMVDLDIIRAEYELREMLLRLLEEIF [R2-12] was tested, and the “cAMP accumulation (HTRF): -log10EC50” value was -3.86 -log10EC50 (as headed) and the “cAMP accumulation (HTRF): Emax” value was 154%.
GVYAIQAMHDLAKIRAEYELREMLLRLLEEIF [R2-10] was tested, and the “cAMP accumulation (HTRF): -log10EC50” value was -4.49 -log10EC50 (as headed) and the “cAMP accumulation (HTRF): Emax” value was 1680%.
With SIIGEQLMLLRALLRAEYELREMLLRLLEEIF [R2-18] the “cAMP accumulation (HTRF): -log10EC50” value was -2.23 -log10EC50 (as headed) and the “cAMP accumulation (HTRF): Emax” value was 36.6%.
AVAEIQLMHQRAKWLNELRLKEEMRKILEDVY [R2-33] was tested, and the “cAMP accumulation (HTRF): -log10EC50” value was -7.1 -log10EC50 (as headed) and the “cAMP accumulation (HTRF): Emax” value was 96.9%.
AVAEIQLMHQRAKWKLELELKVKLLEILKDVY [R2-25] was tested, and the “cAMP accumulation (HTRF): -log10EC50” value was -7.89 -log10EC50 (as headed) and the “cAMP accumulation (HTRF): Emax” value was 96%.
In the case of AVAEIQLMHQRAKWEIQEIGIKITLDLLQTLK [R2-41], the “cAMP accumulation (HTRF): -log10EC50” value is reported as -10.3 -log10EC50 (as headed) and the “cAMP accumulation (HTRF): Emax” value is reported as 98.2%.
For GVAMLQILHDKAKVRAEYELREMLLRLLEEIF [R2-11], the “cAMP accumulation (HTRF): -log10EC50” value was -5.7 -log10EC50 (as headed) and the “cAMP accumulation (HTRF): Emax” value was 60.8%.
For GIAVITIMIDYAKLRAEYELREMLLRLLEEIF [R2-22], the “cAMP accumulation (HTRF): -log10EC50” value was -10.1 -log10EC50 (as headed) and the “cAMP accumulation (HTRF): Emax” value was 17.6%.
PIPVKDIMDLRAYLRAEYELREMLLRLLEEIF [R2-19] was tested, and the “cAMP accumulation (HTRF): -log10EC50” value was -4.69 -log10EC50 (as headed) and the “cAMP accumulation (HTRF): Emax” value was 324%.
In the case of LILVKKIIDLRAYLRAEYELREMLLRLLEEIF [R2-21], the “cAMP accumulation (HTRF): -log10EC50” value is reported as -4.67 -log10EC50 (as headed) and the “cAMP accumulation (HTRF): Emax” value is reported as 47%.
With SVMMIQVMHDLAKIRAEYELREMLLRLLEEIF [R2-8] the “cAMP accumulation (HTRF): -log10EC50” value was -7.5 -log10EC50 (as headed) and the “cAMP accumulation (HTRF): Emax” value was 19.9%.
GLAALTIGLLRAKLRAEYELREMLLRLLEEIF [R2-24] was tested, and the “cAMP accumulation (HTRF): -log10EC50” value was -10.4 -log10EC50 (as headed) and the “cAMP accumulation (HTRF): Emax” value was 81.4%.
With AVAEIQLMHQRAKWGLDLELRARLREILRDVY [R2-31] the “cAMP accumulation (HTRF): -log10EC50” value was -14 -log10EC50 (as headed) and the “cAMP accumulation (HTRF): Emax” value was 104%.
GIAVITLMDLRAYLRAEYELREMLLRLLEEIF [R2-13, listing 1 of 2 here] was tested, and the “cAMP accumulation (HTRF): -log10EC50” value was -5.31 -log10EC50 (as headed) and the “cAMP accumulation (HTRF): Emax” value was 116%.
In the case of GIAVLTILDLRAKLRAEYELREMLLRLLEEIF [R2-14], the “cAMP accumulation (HTRF): -log10EC50” value is reported as -11.3 -log10EC50 (as headed) and the “cAMP accumulation (HTRF): Emax” value is reported as 117%.
LILVEQLMDLRAYLRAEYELREMLLRLLEEIF [R2-16] was tested, and the “cAMP accumulation (HTRF): -log10EC50” value was -4.71 -log10EC50 (as headed) and the “cAMP accumulation (HTRF): Emax” value was 48.7%.
For GIAVFTIMHLRIYLRAEYELREMLLRLLEEIF [R2-17], the “cAMP accumulation (HTRF): -log10EC50” value was -3.35 -log10EC50 (as headed) and the “cAMP accumulation (HTRF): Emax” value was 39.7%.
AVAEIQLMHQRAKWELLEELLKILLELLKEYI [R2-38] was tested, and the “cAMP accumulation (HTRF): -log10EC50” value was -6.91 -log10EC50 (as headed) and the “cAMP accumulation (HTRF): Emax” value was 99.1%.
With AVATIQLMTDIAKIRAEYELREMLLRLLEEIF [R2-6] the “cAMP accumulation (HTRF): -log10EC50” value was 3.88 -log10EC50 (as headed) and the “cAMP accumulation (HTRF): Emax” value was 294%.
In the case of AVAEIQLMHQRAKWGLDLELAVKLQEILKDVL [R2-28], the “cAMP accumulation (HTRF): -log10EC50” value is reported as -7.03 -log10EC50 (as headed) and the “cAMP accumulation (HTRF): Emax” value is reported as 99.2%.

These binders were tested against T2, Flag-PTHR1-YFP (parathyroid hormone receptor 1) expressed in transfected HEK293T cells (human, UniProt Q03431 27-593) (assay: cell-based or functional assay).
T2 sequence (looked up): T1 sequence (looked up)
With GIAVITLMVLRALLELQEIGRKITLELLKEYI [R2-51, listing 2 of 2 here] the “arrestin 1, plate 25: -log10EC50” value was -4.53 -log10EC50, the “arrestin 1, plate 25: Emax” value was 12.5 and the “arrestin 2, plate 26: -log10EC50” value was -13.8 -log10EC50. For the same binder, the “arrestin 2, plate 26: Emax” value was 6.47.
With GVAELQLMHDLAKIRAEYELREMLLRLLEEIF [R2-1, listing 2 of 2 here] the “arrestin 1, plate 7: -log10EC50” value was -15 -log10EC50, the “arrestin 1, plate 7: Emax” value was 6.35 and the “arrestin 2, plate 8: -log10EC50” value was -9.21 -log10EC50. For the same binder, the “arrestin 2, plate 8: Emax” value was 6.41.
GVAMLQIMHDLAKIKQELELKDSMKKILEDVL [R2-50] was tested, and the “arrestin 1, plate 15: -log10EC50” value was -5.92 -log10EC50, the “arrestin 1, plate 15: Emax” value was 32.9 and the “arrestin 1, plate 25: -log10EC50” value was -13.8 -log10EC50. The “arrestin 1, plate 25: Emax” value was 6.47, the “arrestin 2, plate 26: -log10EC50” value was -13.9 -log10EC50 and the “arrestin 2, plate 26: Emax” value was 6.62.
With GIAVITLMLLRAYLELLEELVKILHELLRRYH [R2-52] the “arrestin 1, plate 25: -log10EC50” value was -9.83 -log10EC50, the “arrestin 1, plate 25: Emax” value was 6.37 and the “arrestin 2, plate 26: Emax” value was 6.48.
In the case of AVAEIQLMHQRAKWKILEELLKILIDLLKQYI [R2-48], the “arrestin 1, plate 13: -log10EC50” value is reported as -5.72 -log10EC50, the “arrestin 1, plate 13: Emax” value is reported as 15.1 and the “arrestin 1, plate 23: -log10EC50” value is reported as -15.4 -log10EC50. The “arrestin 1, plate 23: Emax” value was 6.53, the “arrestin 2, plate 24: -log10EC50” value was -10.7 -log10EC50 and the “arrestin 2, plate 24: Emax” value was 6.67.
With GIAVITLMDLRAYLRAEYELREMLLRLLEEIF [R2-13, listing 2 of 2 here] the “arrestin 1, plate 15: -log10EC50” value was -8.79 -log10EC50, the “arrestin 1, plate 15: Emax” value was 6.38 and the “arrestin 2, plate 16: -log10EC50” value was -14 -log10EC50. The “arrestin 2, plate 16: Emax” value was 6.59.
